From patent publication US20220332804A1 (CSL INNOVATION, published 2022)

T1: human complement C2 (human, UniProt P06681 21-752)
T1 construct: Recombinant full-length human C2 with C-terminal 8x His tag, purified from Expi293F supernatant; also called human C2; huC2
T1 sequence: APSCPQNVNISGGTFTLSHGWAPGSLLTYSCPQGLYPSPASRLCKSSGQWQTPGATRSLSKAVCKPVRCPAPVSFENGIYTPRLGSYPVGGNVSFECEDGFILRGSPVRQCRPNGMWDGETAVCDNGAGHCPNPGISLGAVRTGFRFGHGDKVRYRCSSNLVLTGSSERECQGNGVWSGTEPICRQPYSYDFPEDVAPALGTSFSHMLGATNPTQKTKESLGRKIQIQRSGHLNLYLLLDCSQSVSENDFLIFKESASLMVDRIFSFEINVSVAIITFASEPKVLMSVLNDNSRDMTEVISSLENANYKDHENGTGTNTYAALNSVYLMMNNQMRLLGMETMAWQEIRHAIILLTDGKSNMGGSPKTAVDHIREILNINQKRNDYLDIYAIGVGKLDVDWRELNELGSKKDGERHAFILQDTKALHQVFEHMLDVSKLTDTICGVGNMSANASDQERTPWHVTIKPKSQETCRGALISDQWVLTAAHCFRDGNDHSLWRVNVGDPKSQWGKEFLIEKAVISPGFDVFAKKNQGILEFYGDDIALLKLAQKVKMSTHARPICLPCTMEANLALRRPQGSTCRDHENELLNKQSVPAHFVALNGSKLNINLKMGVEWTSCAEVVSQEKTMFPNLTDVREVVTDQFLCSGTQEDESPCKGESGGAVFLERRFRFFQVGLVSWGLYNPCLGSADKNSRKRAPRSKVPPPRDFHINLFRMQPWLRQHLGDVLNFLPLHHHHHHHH

T2: human C2 K443A (human, UniProt P06681 21-752)
T2 sequence: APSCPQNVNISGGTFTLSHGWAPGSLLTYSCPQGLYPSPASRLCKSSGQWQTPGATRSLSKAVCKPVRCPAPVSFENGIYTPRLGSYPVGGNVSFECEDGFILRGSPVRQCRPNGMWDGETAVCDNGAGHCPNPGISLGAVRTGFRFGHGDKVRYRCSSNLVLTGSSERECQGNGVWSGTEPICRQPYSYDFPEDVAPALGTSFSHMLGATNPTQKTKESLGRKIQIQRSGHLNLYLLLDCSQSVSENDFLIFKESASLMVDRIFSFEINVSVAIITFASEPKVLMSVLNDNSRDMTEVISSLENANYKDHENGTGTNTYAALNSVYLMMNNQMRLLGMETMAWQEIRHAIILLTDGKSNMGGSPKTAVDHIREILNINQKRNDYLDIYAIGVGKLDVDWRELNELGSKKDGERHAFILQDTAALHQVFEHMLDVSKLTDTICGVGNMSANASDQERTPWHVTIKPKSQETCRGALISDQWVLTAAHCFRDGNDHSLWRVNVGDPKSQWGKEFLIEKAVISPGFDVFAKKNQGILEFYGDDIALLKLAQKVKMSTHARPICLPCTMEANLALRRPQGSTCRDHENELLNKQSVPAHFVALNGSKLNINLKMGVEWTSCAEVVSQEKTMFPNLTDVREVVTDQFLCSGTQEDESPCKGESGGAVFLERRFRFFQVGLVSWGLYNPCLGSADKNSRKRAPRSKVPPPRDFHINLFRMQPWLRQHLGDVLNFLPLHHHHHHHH

T3: human C2 G677A (human, UniProt P06681 21-752)
T3 sequence: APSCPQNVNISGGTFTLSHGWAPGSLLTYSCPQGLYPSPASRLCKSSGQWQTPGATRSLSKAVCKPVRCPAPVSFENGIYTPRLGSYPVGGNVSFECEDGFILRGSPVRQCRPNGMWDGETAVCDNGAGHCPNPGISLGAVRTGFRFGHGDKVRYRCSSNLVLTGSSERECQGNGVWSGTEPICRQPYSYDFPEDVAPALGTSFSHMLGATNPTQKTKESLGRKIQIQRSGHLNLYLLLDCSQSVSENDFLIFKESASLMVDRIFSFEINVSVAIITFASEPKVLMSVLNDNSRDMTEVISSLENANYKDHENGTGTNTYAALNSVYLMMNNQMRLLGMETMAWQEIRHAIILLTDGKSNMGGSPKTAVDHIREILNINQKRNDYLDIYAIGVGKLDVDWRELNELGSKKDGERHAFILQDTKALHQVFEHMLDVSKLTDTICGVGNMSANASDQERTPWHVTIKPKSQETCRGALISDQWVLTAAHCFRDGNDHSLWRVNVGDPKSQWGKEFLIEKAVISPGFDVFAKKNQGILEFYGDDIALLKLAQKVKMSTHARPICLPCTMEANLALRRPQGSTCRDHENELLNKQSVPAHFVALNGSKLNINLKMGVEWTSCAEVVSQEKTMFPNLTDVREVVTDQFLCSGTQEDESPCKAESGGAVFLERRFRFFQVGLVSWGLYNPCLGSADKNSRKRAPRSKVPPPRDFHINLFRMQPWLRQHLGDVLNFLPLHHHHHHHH

T4: Activated human C2 (huC2a) (human, UniProt P06681 244-752)
T4 construct: domain: C2a; also called human C2a
T4 sequence (looked up): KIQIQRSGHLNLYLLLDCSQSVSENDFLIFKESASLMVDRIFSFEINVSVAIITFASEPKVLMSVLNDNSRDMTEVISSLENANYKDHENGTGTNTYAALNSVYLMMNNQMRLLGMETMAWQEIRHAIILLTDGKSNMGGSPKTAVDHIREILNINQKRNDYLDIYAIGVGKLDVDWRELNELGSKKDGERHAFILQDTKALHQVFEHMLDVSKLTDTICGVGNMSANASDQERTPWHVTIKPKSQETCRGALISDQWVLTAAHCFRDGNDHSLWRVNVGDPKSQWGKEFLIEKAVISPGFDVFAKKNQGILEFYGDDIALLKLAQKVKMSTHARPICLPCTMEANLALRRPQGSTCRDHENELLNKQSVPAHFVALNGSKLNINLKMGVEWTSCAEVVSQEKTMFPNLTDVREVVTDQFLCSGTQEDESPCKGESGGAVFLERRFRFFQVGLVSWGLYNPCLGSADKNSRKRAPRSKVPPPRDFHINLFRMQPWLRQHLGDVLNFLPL


Key:
[1] = molecular target: T1, human complement C2; test: SPR, mAb captured, C2 analyte
[2] = molecular target: T2, human C2 K443A; test: SPR, mAb captured, C2 mutant analyte;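 further: Anti-C2 mAbs captured on goat anti-human IgG Biacore CM5 chips, alanine or serine C2 surface mutants flowed over at 37 °C, double-referenced sensorgrams fitted to a 1:1 binding model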
Protocol: (§1) Surface plasmon resonance (SPR, Biacore) was used for all binding affinity analyses. In brief, goat anti-human IgG was directly immobilised onto the carboxymethyl dextran surface of CM5 sensorchips to approximately 12,000 RU using standard NHS/EDC chemistry at pH 5. The immobilised antibody surface was pre-conditioned with ten injections of polyclonal human IgG (Privigen 60 s) prepared at 1 μg/mL. Ligands (anti-C2 mAbs) were captured at the beginning of each cycle as described below. An adjacent spot or flow cell in which only Polyclonal IgG was capture was used as a reference surface. The goat anti-human IgG Fc antibody surface was regenerate in 100 mM H3PO4, injected for 45 seconds at the end of each cycle. Experiments were performed at 37° C. and the flow rate of each experiment was kept constant at 30 μL/min.
(§2) Sensogram data was double-referenced against a reference anti-IgG surface (i.e. minus anti-C2 mAb) and blank buffer injections obtained within each experiment. The binding data was fit to 1:1 (kinetic or steady-state) model using local Rmax and null refraction index (RI=0) when appropriate. Buffers and solutions were filtered (0.22 μm) prior to use.

[3] = molecular target: T3, human C2 G677A; test: SPR, mAb captured, C2 mutant analyte;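 further: Anti-C2 mAbs captured on goat anti-human IgG Biacore CM5 chips, alanine or serine C2 surface mutants flowed over at 37 °C, double-referenced sensorgrams fitted to a 1:1 binding model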
Protocol: as §1, §2

[4] = molecular target: T4, Activated human C2 (huC2a); test: SPR, mAb captured, neutral and acidic pH, 0 to 2 mM CaCl2
Protocol: as §1
The effect of calcium on antibody binding was determined with the addition of calcium chloride to the SPR running buffer. Calcium concentrations ranged from zero (i.e. no added calcium, control) to near physiological levels (0.02, 0.2 and 2 mM CaCl₂.2H₂O, MW 147.02 Da). […]
Purified human C2 zymogen was tested in physiological conditions (pH 7.3) at concentrations ranging from 1.9 to 500 nM and in acidic conditions (pH 6) at concentrations ranging from 3.9 to 2000 nM. […] Analyte association and dissociation were monitored for 180 and 600 seconds, respectively. […]

Kd [1] [nM] | binding result [2] | Kd [3] [nM] | binding result [4] | Binder
31 | no binding | 28.1 |  | RF16-214 (antibody, V domains shown) VH: EVQLLESGGGLVQPGGSLRLSCAASGFTFSWYQMMWVRQAPGKGLEWVSRIYPSGGGTAYADSVKGRFTISRDNSKNTLYLQMNSLRAEDTAVYYCARDAGYGDNWGQGTLVTVSS VL: QSALTQPPSVSVSPGQTASITCSGDKLGEKYASWYQQKAGQSPVMVIYQDRKRPSGIPERFSGSNSGNTATLTISGTQAMDEADYYCQAWDTRAVVFGGGTKLTVLG
 |  |  | no binding | RF16-226 (antibody) heavy: not shown light: SYELTQPPSVSVSPGQTARITCSGDALTSKYVAWYQQKSGLAPLLVIYEDTRRPSGIPAKFSGSSSGSVATLTISGAHGDDEADYYCYSTDASGHQRVFGGGTKLTVLSQPKAAPSVTLFPPSSEELQANKATLVCLISDFYPGAVTVAWKADGSPVKAGVETTKPSKQSNNKYAASSYLSLTPEQWKSHRSYSCQVTHEGSTVEKTVAPTECS
